Measured values: PMC3618430 (PLoS ONE, 2013)
Positions count from the first letter of the chain named.

B1: A3 Fab displayed on phage (Fab, V domains shown)
VH: QVTLKESGPGILKPSQTLSLTCSFSGFSLSTSGMGVGWIRQSSGKGLEWLANIWWDDDKYYNPSLKSQLTISKDTSRNQVFLKITSVDTADTATYYCARRGEYDAMDYWGQGTSVTVSS
VL: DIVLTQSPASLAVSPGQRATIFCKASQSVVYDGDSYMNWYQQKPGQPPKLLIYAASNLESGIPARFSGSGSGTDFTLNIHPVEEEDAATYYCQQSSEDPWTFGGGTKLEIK
notes: also called clone A3; Fab-phage A3; source: E. coli TG-1 with helper phage KM13, phage PEG-precipitated
B2: D8 Fab displayed on phage (Fab, V domains shown)
VH: B1 VH with S32P, S42P, A90T, E102N
VL: DIVLTQSPASLAMSLGQRATISCKASQSVVYDGDSYMNWYQQKPGQPPKLLIYAASNLESGIPARFSGSGSGTDFTLNIHPVEEEDAATYYCQQSSEDPWTFGGGTKLEIK
notes: also called clone D8; Fab-phage D8; source: E. coli TG-1 with helper phage KM13, phage PEG-precipitated
B3: A4 Fab displayed on phage (Fab, V domains shown)
VH: B1 VH with S42P, E102K, A105S
VL: B2 VL
notes: also called clone A4; Fab-phage A4; source: E. coli TG-1 with helper phage KM13, phage PEG-precipitated
B4: D4 Fab displayed on phage (Fab, V domains shown)
VH: B1 VH with S30N, S42P, Q68H, R77G, T92S, E102D, A105S, M106L
VL: B2 VL with A9G, A12S, M13V, V30D
notes: also called clone D4; Fab-phage D4; source: E. coli TG-1 with helper phage KM13, phage PEG-precipitated

Target: recombinant A/Netherlands/219/03 (H7N7) HA (Influenza A virus …, UniProt Q6VMK1, strain)
Assay: ELISA
Conditions: one partner purified

| Binder | binding result |
| --- | --- |
| B1 | no binding |
| B2 | no binding |
| B3 | no binding |
| B4 | no binding |

Target: recombinant A/Turkey/1/2005 (H5N1) HA (Influenza A virus …, UniProt Q207Z6, strain)
Assay: ELISA
Conditions: one partner purified

| Binder | binding result |
| --- | --- |
| B1 | binds |
| B2 | binds |
| B3 | binds |
| B4 | binds |

Target: T1, recombinant A/California/04/2009 H1N1 HA (Influenza A virus A/California/04/2009 …, UniProt C3W5S1, strain)
T1 construct: source: bought: Sino Biological Inc
Assay: ELISA
Conditions: one partner purified

| Binder | binding result |
| --- | --- |
| B1 | no binding |
| B2 | no binding |
| B3 | no binding |
| B4 | no binding |

Target: T2, bovine serum albumin (Bos taurus, UniProt P02769)
T2 construct: also called BSA
T2 sequence (P02769 25-607): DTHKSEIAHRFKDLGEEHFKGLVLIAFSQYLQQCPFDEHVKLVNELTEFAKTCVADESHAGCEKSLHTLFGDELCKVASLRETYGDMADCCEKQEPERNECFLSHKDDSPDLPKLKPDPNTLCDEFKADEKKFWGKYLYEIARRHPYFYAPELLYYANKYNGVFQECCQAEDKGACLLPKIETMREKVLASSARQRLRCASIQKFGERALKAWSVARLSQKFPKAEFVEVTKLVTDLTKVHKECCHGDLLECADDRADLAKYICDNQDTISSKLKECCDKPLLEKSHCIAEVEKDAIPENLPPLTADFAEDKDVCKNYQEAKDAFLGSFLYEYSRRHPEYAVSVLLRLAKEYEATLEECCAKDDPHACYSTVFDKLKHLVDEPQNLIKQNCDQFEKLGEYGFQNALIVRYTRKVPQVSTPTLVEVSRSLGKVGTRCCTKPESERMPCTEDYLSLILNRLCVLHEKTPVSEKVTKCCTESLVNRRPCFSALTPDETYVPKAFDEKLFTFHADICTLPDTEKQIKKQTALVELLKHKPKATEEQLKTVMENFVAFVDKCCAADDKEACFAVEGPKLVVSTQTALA
Assay: ELISA
Conditions: one partner purified

| Binder | binding result |
| --- | --- |
| B1 | no binding |
| B2 | no binding |
| B3 | no binding |
| B4 | no binding |

Target: recombinant A/Anhui/1/05 (H5N1) HA (Influenza A virus A/Anhui/1/2005 (H5N1), UniProt Q1WDM0, strain)
Assay: ELISA
Conditions: one partner purified

| Binder | binding result |
| --- | --- |
| B1 | binds |
| B2 | binds |
| B3 | binds |
| B4 | binds |
